Measurements from PMC3420021, “Crystallographic Analysis of Polypyrimidine Tract-Binding Protein-Raver1 Interactions Involved in Regulation of Alternative Splicing” (Structure(London, England:1993), 2011).

B1: Raver1 PRI4 12-residue sequence as it stands in the PRI4-RRM2 chimera (peptide)
peptide: SSEGLLGLGPGP
notes: core GLLGLGP is numbered 1-7; In the crystal it was joined on one chain with m3 (chimera m5); source: E. coli BL21 (DE3), purified as part of the PRI4-RRM2 chimera
B2: Raver1 PRI3 12-residue sequence as it stands in the PRI3-RRM2 chimera (peptide)
peptide: PGVSLLGAPPKD
notes: core SLLGAPP is numbered 1-7; In the crystal it was joined on one chain with m3 (chimera m1); source: E. coli BL21 (DE3), purified as part of the PRI3-RRM2 chimera

Molecular target: T1, PTB RRM2 (residues 156-285 of PTB) as it stands in the PRI-RRM2 chimeras (UniProt P26599 156-285)
T1 construct: the linker residues had no density; source: E. coli BL21 (DE3), purified as part of the PRI-RRM2 chimeras
T1 sequence (P26599 156-285, change not shown): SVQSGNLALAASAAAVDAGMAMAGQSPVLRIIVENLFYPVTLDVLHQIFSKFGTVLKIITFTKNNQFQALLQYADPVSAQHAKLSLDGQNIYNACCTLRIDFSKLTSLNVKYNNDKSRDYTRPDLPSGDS
Test: crystal structure; PRI sequence fused as N-terminal extension to PTB 156-285 on one chain; sitting drop, 0.2 M NaI, 0.1 M Bis-Trispropane pH 6.5, 20% PEG 3350; two complexes in the asymmetric unit
Conditions: both partners purified

Row | Binder | binding result
1 | B1 | binds
2 | B2 | binds
